Numbering of substitutions follows the chain as printed.
B1: 556F6B8 (LAG-3 mouse-human chimeric antibody) (antibody, V domains shown)
VH: RVQLKQSGPGLVQPSQSLSITCTVSGFSLIKYGVHWVRQSPGEGLEWLGVIWRGGITDYNAAFMSRLSITKDNSKSQVFFKMNSLQADDTAIYYCAKWDGPLAMDYWGQGTSVTVSS
VL: DIVMTQSHKFLSTSVGDRVSITCKASQDVGTTVAWYQQKPGQSPKLLIYWASTRHTGVPDRFTGSGSGTDFTLTISNVQSEDLADYFCQQYSSYPYTFGGGTKLEIK
notes: also called 556F8B8
B2: 105F1E10 (LAG-3 mouse-human chimeric antibody) (antibody, V domains shown)
VH: EVQLQQSGPELVKPGASVKMSCRASGYTFTDFKMHWMKQSHGKSLEWIGYIAPNNGGTAYNQKFRGKATLTVNESSNTAYMELRSLTSEDSAVYYCVDWDDVDYWGQGTTLTVSS
VL: DIKMTQSPSSMYASLGERVTITCKASQDINSYLSWFQQKSGKSPKTLIYRANRLVDGVPSRFSGSGSGQDYSLTISSLEYEDMGIYYCLQYVEFPLTFGAGTKLELK
B3: 405B8H3 (LAG-3 mouse-human chimeric antibody) (antibody, V domains shown)
VH: QVQLQQSGAELVRPGASVTLSCKASGYTFTDYEMHWVKQTPVHGLEWIGATDPETGNSAYNQKFKGKAIMTADKSSSTAYMELRSLTSEDSAVYYCISTGWNDWGQGTSLTVSS
VL: B2 VL with S40P, N52D, V55L, E81G, V92D, L96Y, A100G, L106I
notes: also called mouse-human chimeric antibody 405B8H3
B4: 409D4E10 (LAG-3 mouse-human chimeric antibody) (antibody, V domains shown)
VH: B3 VH with Y27N, G56D, S58T, M70L, A72T, S98T, T99S
VL: B2 VL with S40P, V55L, V92N, L96Y, A100G, L106I
B5: 409B11E12 (LAG-3 mouse-human chimeric antibody) (antibody, V domains shown)
VH: B3 VH with P41T, G56S, N57Y, M70L, S98A
VL: B2 VL with I2L, S40P, V55L, V92D, L96Y, A100G, L106I
B6: 556F6B8 (mouse antibody purified from hybridoma) (antibody, V domains shown)
VH: B1 VH
VL: B1 VL
notes: also called mAb123-556F6B8
B7: 405B8H3 (mouse antibody purified from hybridoma) (antibody, V domains shown)
VH: B3 VH
VL: B2 VL with S40P, N52D, V55L, E81G, V92D, L96Y, A100G, L106I
notes: also called mAb103-405B8H3; 405B81-13
B8: 105F1E10 (mouse antibody purified from hybridoma) (antibody, V domains shown)
VH: B2 VH
VL: B2 VL
notes: also called mAb009-105F1E10
B9: 409D4E10 (mouse antibody purified from hybridoma) (antibody, V domains shown)
VH: B3 VH with Y27N, G56D, S58T, M70L, A72T, S98T, T99S
VL: B2 VL with S40P, V55L, V92N, L96Y, A100G, L106I
notes: also called mAb112-409D4E10
B10: 409B11E12 (mouse antibody purified from hybridoma) (antibody, V domains shown)
VH: B3 VH with P41T, G56S, N57Y, M70L, S98A
VL: B2 VL with I2L, S40P, V55L, V92D, L96Y, A100G, L106I
notes: also called mAb104-409B11E12
B11: 556F6B8 mouse-human chimeric antibody (antibody, V domains shown)
VH: B1 VH
VL: B1 VL
notes: also called mAb123-556F6B8; 556F8B8
B12: 105F1E10 mouse-human chimeric antibody (antibody, V domains shown)
VH: B2 VH
VL: B2 VL
notes: also called mAb009-105F1E10
B13: 405B8H3 mouse-human chimeric antibody (antibody, V domains shown)
VH: B3 VH
VL: B2 VL with S40P, N52D, V55L, E81G, V92D, L96Y, A100G, L106I
notes: also called mAb103-405B8H3
B14: 409B11E12 mouse-human chimeric antibody (antibody, V domains shown)
VH: B3 VH with P41T, G56S, N57Y, M70L, S98A
VL: B2 VL with I2L, S40P, V55L, V92D, L96Y, A100G, L106I
notes: also called mAb104-409B11E12
B15: 409D4E10 mouse-human chimeric antibody (antibody, V domains shown)
VH: B3 VH with Y27N, G56D, S58T, M70L, A72T, S98T, T99S
VL: B2 VL with S40P, V55L, V92N, L96Y, A100G, L106I
notes: also called mAb112-409D4E10

Target: T1, hFc tagged monkey LAG-3 protein (cLAG-3-hFc protein) (monkey; human)
T1 construct: Made in HEK293 cells; also called monkey LAG-3 extracellular domain protein; not shown: human IgG Fc fragment (hFc) of the pCpC vector
T1 chain: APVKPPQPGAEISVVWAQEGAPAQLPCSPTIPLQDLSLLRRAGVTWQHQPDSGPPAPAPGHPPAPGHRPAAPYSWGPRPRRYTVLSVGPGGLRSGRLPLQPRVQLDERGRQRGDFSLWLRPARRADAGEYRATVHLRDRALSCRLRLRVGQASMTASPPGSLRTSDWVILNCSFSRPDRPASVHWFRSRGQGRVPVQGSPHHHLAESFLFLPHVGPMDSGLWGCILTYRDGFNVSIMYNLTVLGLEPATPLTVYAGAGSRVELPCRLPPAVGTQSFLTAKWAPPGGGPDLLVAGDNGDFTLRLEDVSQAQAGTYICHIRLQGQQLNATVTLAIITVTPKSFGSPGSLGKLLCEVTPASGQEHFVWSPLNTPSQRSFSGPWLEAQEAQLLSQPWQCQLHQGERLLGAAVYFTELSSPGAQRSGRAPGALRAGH
Experiment: ELISA, cLAG-3-hFc coated; 0.6667 nM
Experimental: (§1) The plate was sealed with plastic film and incubated overnight at 4° C. The plate was washed 2 times with the plate washing solution (PBS+0.01% Tween20) on the next day, and added with the blocking solution (PBS+0.01% Tween20+1% BSA) and blocked at room temperature for 1-2 hours. The blocking solution was poured out, and the plate was added with 50-100 μl of the antibody sample to be tested to each well, incubated at 37° C. for 1-2 hours, and washed 2-3 times with a plate washing solution (PBS+0.01% Tween20). HRP (horseradish peroxidase) labeled secondary antibody was added, and the plate was incubated at 37° C. for 1-2 hours, and washed 2-3 times with a plate washing solution (PBS+0.01% Tween20). 100 μl of TMB substrate was added to each well. After incubated at room temperature for 15-30 minutes, the plate was added with 100 μl of stop solution (1.0N HCl) to each well.

Point of comparison: B4, OD450 3.78 OD450. Against it:
- B1 — lower, 3.7 OD450
- B2 — lower, 3.38 OD450
- B3 — lower, 3.39 OD450
- B5 — lower, 3.36 OD450

What follows are binders tested against T2, mouse LAG-3 protein with hFc tag (mLAG-3-hFc protein) (mouse; human, UniProt Q61790 24-442) (assay: ELISA, mLAG-3-hFc coated; 6.6667 nM).
T2 construct: Made in HEK293 cells; also called mouse LAG-3 extracellular domain protein; not shown: human IgG Fc fragment (hFc) of the pCpC vector
T2 sequence: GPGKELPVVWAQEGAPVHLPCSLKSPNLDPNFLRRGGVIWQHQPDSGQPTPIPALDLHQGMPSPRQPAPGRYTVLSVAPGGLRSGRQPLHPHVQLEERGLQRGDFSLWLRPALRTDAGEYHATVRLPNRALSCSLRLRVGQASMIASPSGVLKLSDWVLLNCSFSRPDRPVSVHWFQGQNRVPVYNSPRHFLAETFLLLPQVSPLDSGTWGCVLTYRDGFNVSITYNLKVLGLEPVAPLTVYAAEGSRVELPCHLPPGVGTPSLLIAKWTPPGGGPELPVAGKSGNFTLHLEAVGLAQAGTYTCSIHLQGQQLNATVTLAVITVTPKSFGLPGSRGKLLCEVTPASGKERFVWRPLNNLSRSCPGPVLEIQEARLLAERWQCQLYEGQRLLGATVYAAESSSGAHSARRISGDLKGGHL
Experimental: as §1

Point of comparison: B3, OD450 0.34 OD450. Against it:
- B1 — higher, 0.36 OD450
- B2 — lower, 0.14 OD450
- B4 — lower, 0.23 OD450
- B5 — lower, 0.31 OD450

These binders were tested against T3, human LAG-3 protein with hFc tag (hLAG-3-hFc protein) (human, UniProt P18627 23-450) (assay: FACS, blocks LAG-3-hFc binding to MHC II on Raji; 200.000 nM).
T3 construct: also called immunogen 1; LAG-3 extracellular domain protein; not shown: human IgG Fc fragment (hFc) of the pCpC vector
T3 sequence: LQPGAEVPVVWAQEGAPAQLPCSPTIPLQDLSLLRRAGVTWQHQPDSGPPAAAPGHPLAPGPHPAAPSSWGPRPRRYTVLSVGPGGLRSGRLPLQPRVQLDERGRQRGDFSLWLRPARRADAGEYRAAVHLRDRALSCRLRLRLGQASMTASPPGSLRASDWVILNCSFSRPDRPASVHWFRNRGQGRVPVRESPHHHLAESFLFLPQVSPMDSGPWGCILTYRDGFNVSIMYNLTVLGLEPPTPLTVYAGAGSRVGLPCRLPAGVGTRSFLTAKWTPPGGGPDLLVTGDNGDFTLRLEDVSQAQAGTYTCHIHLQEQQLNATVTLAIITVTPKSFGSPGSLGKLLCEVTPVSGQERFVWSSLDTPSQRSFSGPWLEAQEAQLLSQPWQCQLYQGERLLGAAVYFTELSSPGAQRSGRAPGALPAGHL
Experimental: (§2) The FACS reaction plate incubating the Raji cells was centrifuged to discard the supernatant. The above mixture was added as 100 μl per well to Raji cells and incubated on ice for 1-2 hours. The plate was washed twice with blocking solution (PBS, 2% fetal bovine serum) by centrifugation, added with 100 microliters of fluorescent (Alexa 488)-labeled secondary antibodies per well, and incubated on ice for 1.0 hours. The plate was washed 2-3 times by centrifugation with blocking solution (PBS, 2% fetal bovine serum), added with 100 microliters of PBS per well to suspend cells, and detected using FACS (FACS Calibur, BD) and the results were analyzed. Wherein, the IgG control was murine IgG, and the data in the table is the inhibition rate (%).

Point of comparison: B9, “Inhibition rate (%)” value 95.9%. Against it:
- B6 — higher, 96%
- B7 — lower, 93.9%
- B8 — lower, 93.1%
- B10 — lower, 95%

The binders below were run against T4, LAG-3-hFc protein (human LAG-3 extracellular region with hFc tag) (human, UniProt P18627 23-450) (assay: FACS, inhibition of LAG-3-hFc binding to MHC II on Raji cells, antibody 2.469 nM).
T4 construct: also called hLAG-3-hFc; LAG-3 protein; not shown: human IgG Fc fragment (hFc) of the pCpC vector
T4 sequence: T3 sequence
Experimental: as §2

Point of comparison: B13, “Inhibition rate (%)” value 55.8%. Against it:
- B11 — lower, 41.5%
- B12 — lower, 8.2%
- B14 — higher, 59.2%
- B15 — higher, 56.7%

What follows are binders tested against T4, LAG-3-hFc protein (human LAG-3 …) (assay: FACS, inhibition of LAG-3-hFc binding to MHC II on Raji cells, antibody 22.222 nM).
Experimental: as §2

Point of comparison: B14, “Inhibition rate (%)” value 95.6%. Against it:
- B11 — higher, 95.8%
- B12 — higher, 95.8%
- B13 — higher, 95.7%
- B15 — higher, 95.7%
